According to patent US20230382979A1 (ADAPTIVE BIOTECHNOLOGIES, published 2023):
Residue numbers refer to the chain shown, from its start. Like-named read-outs stand apart in the source and are kept apart here.

B1: antibody 2080 (antibody, V domains shown)
VH: QVQLQQWGAGLLKPSETLSLTCAVYGGSFSGYYWSWIRQPPGKGLEWIGRINDIGSTDYNPSLKSRVTISVDTSKNQFSLKLTSVTAADTAVYYCAREPFDSEGTFDYWGQGTLVIVSS
VL: DIQMTQPPSTLSASVGDRVTITCRASQSISRWLAWYRQKPGKAPKLLIYDASSLQSGVPSRFSGSGSGTEFTLTISSLQPDDLATYYCQQYNTYPYTFGQGTKLEIK
B2: antibody 1872 (antibody, V domains shown)
VH: EVQLVESGGGLVKPGGSLRLSCAASGFSFSLYTMNWVRQAPGKGLEWVSYISSSSSYRYYADSVKGRFSVSRDNAKNALYLQMNGLRAEDTAVYYCARDGYCPRGVCTYYGMDVWGQGTTVTVSA
VL: EIVMTQSPATLSVSPGERATLSCRASQSVGSRLAWYQQKPGQAPRLLIYDATIRATGIPARFSGSGSGTDFTLTISGLQSEDFAVYYCQRYNNWPPAYTFGQGTKLEIK
B3: antibody 1859 (antibody, V domains shown)
VH: B2 VH with S30N, L31T, R58K, A61S, N77K, A78S, R104N, A125L
VL: B2 VL with G30S, R32N, D50G, T52S, I53T, D70E, Y87F, R90Q, N92S, N93K
B4: antibody 2024 (antibody, V domains shown)
VH: QVQLVQSGAEVKKPGASVKVSCKVSGYTLIELSMHWVRQAPGKGLEWMGGFDPEEGETIYAQKFQGRVTMTEDTSTDTAYMELSSLRSEDTAVYYCTTSPPVGATGAWFDPWGQGTLVTVSA
VL: SYVLTQPPSVSVAPGKTARITCGGNNIGSKSVHWYQQKPGQAPVLVVYDDSDRPSGIPERFSGSNSGNTATLTISGLQAEDEADYYCSSYTSSSTVVFGGGTKLTVL

What was measured:
[1] = target: T1, S1 subunit of the SARS-CoV-2 spike protein, WA01/2020 strain (SARS-CoV-2, WA01/2020 strain, UniProt P0DTC2 16-685)
[2] = target: T1, S1 subunit of the SARS-CoV-2 spike …; test: dose-response ELISA; antigen taken from the column 'Structural data'
[3] = target: SARS-CoV-2 spike protein, WA1/2020, borne on lentiviral pseudovirus (SARS-CoV-2, WA01/2020 strain, UniProt P0DTC2 14-1273); test: cell-based or functional assay
[4] = target: SARS-CoV (2003) spike protein borne on lentiviral pseudovirus (SARS-CoV (2003), UniProt P59594 14-1255); test: cell-based or functional assay
[5] = target: T2, S2 subunit of the SARS-CoV-2 spike protein, WA01/2020 strain (SARS-CoV-2, WA01/2020 strain, UniProt P0DTC2 686-1213); test: ELISA on S2 (S2 Binding EC50)
MERS-COV (S1+S2) [6] = target: T3, MERS-COV (S1+S2); test: dose-response ELISA on coated spike antigen
T3 chain: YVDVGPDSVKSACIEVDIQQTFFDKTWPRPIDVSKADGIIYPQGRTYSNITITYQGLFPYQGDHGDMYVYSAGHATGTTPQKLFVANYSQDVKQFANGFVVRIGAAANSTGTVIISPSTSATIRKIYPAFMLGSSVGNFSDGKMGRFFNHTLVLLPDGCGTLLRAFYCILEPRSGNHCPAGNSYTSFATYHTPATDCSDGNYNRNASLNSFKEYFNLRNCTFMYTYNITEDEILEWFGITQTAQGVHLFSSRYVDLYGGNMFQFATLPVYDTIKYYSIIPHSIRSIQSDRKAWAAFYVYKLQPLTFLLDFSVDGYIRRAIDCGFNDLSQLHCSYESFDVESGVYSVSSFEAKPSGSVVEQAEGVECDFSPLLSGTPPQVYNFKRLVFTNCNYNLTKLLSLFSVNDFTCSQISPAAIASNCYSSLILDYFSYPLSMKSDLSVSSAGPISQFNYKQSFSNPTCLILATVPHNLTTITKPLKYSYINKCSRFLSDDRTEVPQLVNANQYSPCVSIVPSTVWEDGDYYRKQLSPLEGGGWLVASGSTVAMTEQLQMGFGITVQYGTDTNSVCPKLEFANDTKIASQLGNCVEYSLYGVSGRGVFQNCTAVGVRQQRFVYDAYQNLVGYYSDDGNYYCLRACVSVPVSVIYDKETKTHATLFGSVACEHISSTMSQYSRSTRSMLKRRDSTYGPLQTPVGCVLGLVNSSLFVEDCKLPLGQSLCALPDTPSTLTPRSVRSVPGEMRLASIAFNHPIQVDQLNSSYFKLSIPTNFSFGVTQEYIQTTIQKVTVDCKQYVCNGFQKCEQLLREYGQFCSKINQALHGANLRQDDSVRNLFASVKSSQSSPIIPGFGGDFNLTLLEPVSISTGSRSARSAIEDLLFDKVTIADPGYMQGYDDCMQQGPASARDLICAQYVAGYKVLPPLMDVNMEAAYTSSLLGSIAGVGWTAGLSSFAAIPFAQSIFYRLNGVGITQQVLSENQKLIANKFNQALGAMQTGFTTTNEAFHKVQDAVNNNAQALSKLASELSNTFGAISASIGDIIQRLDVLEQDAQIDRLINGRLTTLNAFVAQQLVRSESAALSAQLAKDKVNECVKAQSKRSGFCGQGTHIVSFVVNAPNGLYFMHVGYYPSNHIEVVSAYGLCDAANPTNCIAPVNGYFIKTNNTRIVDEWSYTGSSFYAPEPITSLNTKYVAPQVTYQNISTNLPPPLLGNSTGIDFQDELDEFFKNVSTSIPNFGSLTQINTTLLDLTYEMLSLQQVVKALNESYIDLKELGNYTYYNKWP

MERS-COV (S2) [7] = target: T4, MERS-COV (S2); test: dose-response ELISA on coated spike antigen
T4 chain: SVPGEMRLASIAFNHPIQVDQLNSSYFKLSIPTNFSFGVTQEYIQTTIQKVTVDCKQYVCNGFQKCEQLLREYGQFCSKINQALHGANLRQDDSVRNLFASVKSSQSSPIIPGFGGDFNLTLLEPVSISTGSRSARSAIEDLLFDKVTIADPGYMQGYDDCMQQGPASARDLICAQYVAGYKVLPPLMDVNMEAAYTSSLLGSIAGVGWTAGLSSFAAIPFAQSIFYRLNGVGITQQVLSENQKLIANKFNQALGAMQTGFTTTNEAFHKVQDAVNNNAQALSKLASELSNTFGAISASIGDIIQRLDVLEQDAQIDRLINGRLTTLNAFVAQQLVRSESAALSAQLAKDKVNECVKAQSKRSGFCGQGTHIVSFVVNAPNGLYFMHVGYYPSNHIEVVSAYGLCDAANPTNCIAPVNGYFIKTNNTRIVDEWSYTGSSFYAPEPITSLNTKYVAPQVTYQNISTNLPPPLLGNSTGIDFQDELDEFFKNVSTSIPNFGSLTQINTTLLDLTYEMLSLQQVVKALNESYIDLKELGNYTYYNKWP

[8] = target: T1, S1 subunit of the SARS-CoV-2 spike …; test: ELISA screening, antibody concentration not given
[9] = target: T5, SARS-CoV-2 nucleocapsid (N) protein (SARS-CoV-2, UniProt P0DTC9 1-419); test: ELISA screening, antibody concentration not given
[10] = target: T2, S2 subunit of the SARS-CoV-2 spike …; test: dose-response ELISA; antigen taken from the column 'Structural data'
MERS-COV (S1+S2) [11] = target: T3, MERS-COV (S1+S2); test: dose-response ELISA on coated spike antigen
MERS-COV (S2) [12] = target: T4, MERS-COV (S2); test: dose-response ELISA on coated spike antigen
[13] = target: T6, SARS-CoV-2 spike (S) protein trimer, WA01/2020 strain (SARS-CoV-2, WA01/2020 strain, UniProt P0DTC2 16-1213)
[14] = target: T1, S1 subunit of the SARS-CoV-2 spike …; test: ELISA, antibody at 0.1 ug/mL
[15] = target: T2, S2 subunit of the SARS-CoV-2 spike …; test: ELISA, antibody at 0.1 ug/mL
[16] = target: T5, SARS-CoV-2 nucleocapsid (N) protein; test: ELISA, antibody at 0.1 ug/mL
[17] = target: T6, SARS-CoV-2 spike (S) protein trimer, …; test: dose-response ELISA; antigen taken from the column 'Structural data'

Binder | Pseudo Neut, WA1/2020 IC50 (pM) [3] [pM] | Pseudo Neut, SARS-CoV 2003 IC50 [4] [nM] | EC50 [5] [nM] | binding result [8] | binding result [9] | EC50 [10] [nM] | also measured
B1 | – | – | – | – | – | – | Kd [1]: 0.69 nM; EC50 [2]: 0.025 nM
B2 | 133 | 27 | 0.071 | no binding (tested: not printed) | no binding (tested: not printed) | 0.071 | binding result (MERS-COV (S1+S2) [6]): no binding (tested: 10000 ng/ml); binding result (MERS-COV (S2) [7]): no binding (tested: 10000 ng/ml)
B3 | 889 | 115 | 1.22 | no binding (tested: not printed) | no binding (tested: not printed) | 1.22 | binding result (MERS-COV (S1+S2) [11]): no binding (tested: 10000 ng/ml); binding result (MERS-COV (S2) [12]): no binding (tested: 10000 ng/ml)
B4 | – | – | – | – | – | – | Kd [13]: 15.6 nM; binding result [14]: no binding (tested: 0.1 ug/mL); binding result [15]: no binding (tested: 0.1 ug/mL); binding result [16]: no binding (tested: 0.1 ug/mL); EC50 [17]: 1.15 nM
